Experimental data reported in patent US20110040072A1, “MONO AND DI-SUBSTITUTED OXYCODONE COMPOUNDS AND COMPOSITIONS” (SHIRE LLC, priority 2006, published 2011).

Legend:
[1] = Oral bioavailability / oral pharmacokinetics of oxycodone conjugates in rats; conditions: for AUC % (Oral Bioavailability): reference = 100
[2] = Intranasal bioavailability of oxycodone conjugates in rats; conditions: for AUC % (Intranasal Bioavailability): reference = 100
[3] = Intravenous bioavailability of oxycodone conjugates in rats
[4] = background statement; cited from earlier work
[5] = relative to OXY = 100, n = 4 animals, analysis by LC-MS

| Compound | Oral (% AUC) [1, 5] [% AUC] | other results |
| --- | --- | --- |
| COc1ccc2c3c1O[C@H]1C(OC(=O)[C@@H](NC(=O)[C@H](CC(=O)O)NC(=O)[C@@H](N)CCC(=O)O)C(C)C)=CC[C@@]4(OC(=O)[C@@H](NC(=O)[C@H](CC(=O)O)NC(=O)[C@@H](N)CCC(=O)O)C(C)C)[C@@H](C2)N(C)CC[C@]314 [(EDV)2-OC, [Glu-Asp-Val]2-OC] |  | AUC % (Oral Bioavailability) [1]: 73%; AUC % (Intranasal Bioavailability) [2]: 20% |
| COc1ccc2c3c1O[C@H]1C(OC(=O)[C@@H](NC(=O)CNC(=O)[C@@H](N)CO)C(C)C)=CC[C@@]4(OC(=O)[C@@H](NC(=O)CNC(=O)[C@@H](N)CO)C(C)C)[C@@H](C2)N(C)CC[C@]314 [(SGV)2-OC, [Ser-Gly-Val]2-OC] |  | AUC % (Intravenous Bioavailability) ([3]; reference = 100): 52%; AUC % (Oral Bioavailability) [1]: 103%; AUC % (Intranasal Bioavailability) [2]: 64% |
| COc1ccc2c3c1O[C@H]1C(OC(=O)[C@@H](NC(=O)[C@H](CCC(=O)O)NC(=O)[C@@H](N)C(C)C)C(C)C)=CC[C@@]4(OC(=O)[C@@H](NC(=O)[C@H](CCC(=O)O)NC(=O)[C@@H](N)C(C)C)C(C)C)[C@@H](C2)N(C)CC[C@]314 [(VEV)2-OC, [Val-Glu-Val]2-OC] |  | AUC % (Oral Bioavailability) [1]: 104%; AUC % (Intranasal Bioavailability) [2]: 39% |
| COc1ccc2c3c1O[C@H]1C(OC(=O)[C@@H](NC(=O)[C@H](C)NC(=O)[C@H](C)N)C(C)C)=CC[C@@]4(O)[C@@H](C2)N(C)CC[C@]314 [Ala-Ala-Val-OC] | 85 |  |
| COc1ccc2c3c1O[C@H]1C(OC(=O)[C@@H](NC(=O)[C@H](CC(=O)O)NC(=O)[C@@H](N)CC(=O)O)C(C)C)=CC[C@@]4(O)[C@@H](C2)N(C)CC[C@]314 [Asp-Asp-Val-OC] | 40 |  |
| CC[C@H](C)[C@H](NC(=O)[C@H](CCC(=O)O)NC(=O)[C@@H](N)CCC(=O)O)C(=O)OC1=CC[C@@]2(O)[C@H]3Cc4ccc(OC)c5c4[C@@]2(CCN3C)[C@H]1O5 [Glu-Glu-Ile-OC] | 179 |  |
| COc1ccc2c3c1O[C@H]1C(OC(=O)[C@H](CC(C)C)NC(=O)[C@H](CCC(=O)O)NC(=O)[C@@H](N)CCC(=O)O)=CC[C@@]4(O)[C@@H](C2)N(C)CC[C@]314 [Glu-Glu-Leu-OC] | 80 |  |
| COc1ccc2c3c1O[C@H]1C(OC(=O)[C@H](Cc4ccccc4)NC(=O)[C@H](CCC(=O)O)NC(=O)[C@@H](N)CCC(=O)O)=CC[C@@]4(O)[C@@H](C2)N(C)CC[C@]314 [Glu-Glu-Phe-OC] | 49 |  |
| COc1ccc2c3c1O[C@H]1C(OC(=O)[C@@H]4CCCN4C(=O)[C@H](CCC(=O)O)NC(=O)[C@@H](N)CCC(=O)O)=CC[C@@]4(O)[C@@H](C2)N(C)CC[C@]314 [Glu-Glu-Pro-OC] | 71 |  |
| COc1ccc2c3c1O[C@H]1C(OC(=O)[C@@H](NC(=O)[C@H](CCC(=O)O)NC(=O)[C@@H](N)CCC(=O)O)C(C)C)=CC[C@@]4(O)[C@@H](C2)N(C)CC[C@]314 [Glu-Glu-Val-OC] | 55 |  |
| CC[C@H](C)[C@H](NC(=O)CNC(=O)CN)C(=O)OC1=CC[C@@]2(O)[C@H]3Cc4ccc(OC)c5c4[C@@]2(CCN3C)[C@H]1O5 [Gly-Gly-Ile-OC] |  | Oral (% AUC) ([1]; relative to OXY = 100, dosed at 40% higher levels than calculated, n = 4 animals, LC-MS): 224 % AUC |
| COc1ccc2c3c1O[C@H]1C(OC(=O)[C@H](Cc4ccccc4)NC(=O)CNC(=O)CN)=CC[C@@]4(O)[C@@H](C2)N(C)CC[C@]314 [Gly-Gly-Phe-OC] | 163 |  |
| COc1ccc2c3c1O[C@H]1C(OC(=O)[C@@H](NC(=O)CNC(=O)CN)C(C)C)=CC[C@@]4(O)[C@@H](C2)N(C)CC[C@]314 [Gly-Gly-Val-OC] | 123 |  |
| CC[C@H](C)[C@H](N)C(=O)N[C@H](C(=O)N[C@H](C(=O)OC1=CC[C@@]2(O)[C@H]3Cc4ccc(OC)c5c4[C@@]2(CCN3C)[C@H]1O5)[C@@H](C)CC)[C@@H](C)CC [Ile-Ile-Ile-OC] | 83 |  |
| COc1ccc2c3c1O[C@H]1C(OC(=O)[C@@H](NC(=O)[C@H](CC(C)C)NC(=O)[C@@H](N)CC(C)C)C(C)C)=CC[C@@]4(O)[C@@H](C2)N(C)CC[C@]314 [Leu-Leu-Val-OC] | 81 |  |
| CC[C@H](C)[C@H](NC(=O)[C@H](CCCCN)NC(=O)[C@@H](N)CCCCN)C(=O)OC1=CC[C@@]2(O)[C@H]3Cc4ccc(OC)c5c4[C@@]2(CCN3C)[C@H]1O5 [Lys-Lys-Ile-OC] | 74 |  |

| Compound | Oral (% AUC) [1, 5] [% AUC] | other results |
| --- | --- | --- |
| COc1ccc2c3c1O[C@H]1C(OC(=O)[C@H](CC(C)C)NC(=O)[C@H](CCCCN)NC(=O)[C@@H](N)CCCCN)=CC[C@@]4(O)[C@@H](C2)N(C)CC[C@]314 [Lys-Lys-Leu-OC] | 46 |  |
| COc1ccc2c3c1O[C@H]1C(OC(=O)[C@H](Cc4ccccc4)NC(=O)[C@H](CCCCN)NC(=O)[C@@H](N)CCCCN)=CC[C@@]4(O)[C@@H](C2)N(C)CC[C@]314 [Lys-Lys-Phe-OC] | 37 |  |
| COc1ccc2c3c1O[C@H]1C(OC(=O)[C@@H](NC(=O)[C@H](CCCCN)NC(=O)[C@@H](N)CCCCN)C(C)C)=CC[C@@]4(O)[C@@H](C2)N(C)CC[C@]314 [Lys-Lys-Val-OC] | 108 |  |
| COc1ccc2c3c1O[C@H]1C(=O)CC[C@@]4(O)[C@@H](C2)N(C)CC[C@]314 [OXY, oxycodone] | 100 | AUC % (Oral Bioavailability) [1]: 100%; Therapeutic plasma concentration [4]: 10 to 100 ng/mL; toxic plasma concentration [4]: greater than 200 ng/mL |
| COc1ccc2c3c1O[C@H]1C(OC(=O)[C@H](CC(C)C)NC(=O)[C@@H]4CCCN4C(=O)[C@@H]4CCCN4)=CC[C@@]4(OC(=O)[C@H](CC(C)C)NC(=O)[C@@H]5CCCN5C(=O)[C@@H]5CCCN5)[C@@H](C2)N(C)CC[C@]314 [[PPL]2-OC, [Pro-Pro-Leu]2-OC] |  | bioavailability by the intravenous route ([3]; versus oxycodone): substantially decreased; bioavailability by the intranasal route ([2]; versus oxycodone): substantially decreased |
| OC-Succcinate | 79 |  |
| Phe-Phe-Ile-OC | 59 |  |
| Phe-Phe-Val-OC | 32 |  |
| Pro-Pro-Ile-OC | 85 | AUC % (Oral Bioavailability) [1]: 85% |
| Pro-Pro-Val-OC | 152 | AUC % (Oral Bioavailability) [1]: 152% |
| Tyr-Tyr-Ile-OC | 85 |  |
| Tyr-Tyr-Phe-OC | 73 |  |
| Tyr-Tyr-Pro-OC | 59 |  |
| Tyr-Tyr-Val-OC | 124 | AUC % (Oral Bioavailability) [1]: 124% |
| Val-Val-Phe-OC | 120 |  |
